Source: patent US20110123525A1 (THROMBOGENICS N V, published 2011)

T1: recombinant human PlGF-2 (produced in Pichia) (human, UniProt P49763-3 19-170, limits assumed)
T1 construct: also called huPlGF-2; rhuPlGF-2
T1 sequence (looked up): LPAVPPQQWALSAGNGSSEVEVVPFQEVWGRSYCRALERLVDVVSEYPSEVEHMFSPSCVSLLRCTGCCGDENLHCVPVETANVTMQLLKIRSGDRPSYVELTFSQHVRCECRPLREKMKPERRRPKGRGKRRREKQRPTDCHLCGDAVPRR

T2: human PlGF-1 (human, UniProt P49763-2 19-149, limits assumed)
T2 construct: also called huPlGF-1; huPlGF
T2 sequence (looked up): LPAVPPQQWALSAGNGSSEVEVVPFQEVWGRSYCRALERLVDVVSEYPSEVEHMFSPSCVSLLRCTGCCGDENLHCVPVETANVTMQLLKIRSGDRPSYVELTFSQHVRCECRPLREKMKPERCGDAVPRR


Tests used:
[1] = target: T1, recombinant human PlGF-2 (produced in …); test: Biacore, rhuPlGF-2 (Pichia) immobilized, antibody injected
[2] = target: T2, human PlGF-1; test: ELISA, plate coated with huPlGF-1, detection with anti-huIgG-HRP (Fab specific), OPD
Protocol: ELISA plates were coated ON with […] huPlGF-1 in PBS, 100 μL/well, 4° C. After blocking with 1% BSA, 1 hr, RT, a dilution series of humanized Fab16D3 was added, 100 μL/well, the antibody fragment was allowed to bind for 1 hr, RT. Bound humanized Fab16D3 was detected with anti-huIgG-HRP(Fab specific) (100 μL/well, 1 hr RT). The assay was developed with OPD.

[3] = target: T2, human PlGF-1; test: ELISA, plate coated with 1 µg/ml huPlGF-1, detection with murine anti-HA and goat anti-murine IgG-HRP, OPD
Protocol: ELISA plates were coated ON with 1 μg/ml huPlGF-1 in PBS, 200 μL/well, 4° C. After blocking with 1% BSA, 1 hr, RT, a dilution series of scFv16D3/humanized scFv16D3 was added, 200 μL/well, the antibody fragment was allowed to bind for 1 hr, RT. Bound scFv16D3 was detected with murine anti-HA (180 μL/well, 1 hr RT) followed by incubation with goat-anti-murine IgG-HRP (Sigma), 170 μL/well, 1 hr, RT. The assay was developed with OPD.

Kd [1] [nM]	EC50 (read off the curve) [2] [µg/mL]	EC50 (read off the curve) [3] [µg/mL]	Binder
0.29			murine monoclonal anti-human PlGF antibody 16D3 (antibody, V domains shown, Whole mouse antibody from hybridoma LMBP 6399CB; also called anti-hPlGF; hp16D3mousecomplAB) VH: QIQLQQSGPELVKPGASVKISCKASGYTFTDYYINWVKLKPGQGLEWIGWIYPGSGNTKYNEKFKGKATLTIDTSSSTAYMQLSSLTSEDTAVYFCVRDSPFFDYWGQGTTLTVSS VL: DIVLSQSPSSLAVSAGEKVTMRCKSSQSLLNSGMRKSFLAWYQQKPGQSPKLLIYWASTRESGVPDRFTGSGSGTDFTLTISSVQAEDLAVYYCKQSYHLFTFGSGTKLEIK
0.161			humanized antibody 16D3 IgG4 kappa (antibody, V domains shown, Expressed transiently in HEK 293 cells; also called hu16D3; Hu16D3 IgG4κ) VH: QVQLQQSGAELVKPGASVKISCKASGYTFTDYYINWVKLAPGQGLEWIGWIYPGSGNTKYNEKFKGKATLTIDTSSSTAYMQLSSLTSEDTAVYFCVRDSPFFDYWGQGTLLTVSS VL: DIVLTQSPDSLAVSLGERVTMNCKSSQSLLNSGMRKSFLAWYQQKPGQSPKLLIYWASTRESGVPDRFTGSGSGTDFTLTISSVQAEDVAVYYCKQSYHLFTFGSGTKLEIK
0.131	~90		humanized Fab 16D3 (Fab, V domains shown, also called hp16D3mutcomplFab; hp16D3mutcmplFab) VH: QVQLQQSGAELVKPGASVKISCKASGYTFTDYYINWVKLAPGQGLEWIGWIYPGSGNTKYNEKFKGKATLTIDTSSSTAYMQLSSLTSEDTAVYFCVRDSPFFDYWGQGTLLTVSS VL: DIVLTQSPDSLAVSLGERVTMNCKSSQSLLNSGMRKSFLAWYQQKPGQSPKLLIYWASTRESGVPDRFTGSGSGTDFTLTISSVQAEDVAVYYCKQSYHLFTFGSGTKLEIK
0.195		~0.1	humanized scFv of 16D3 (scFv, also called humanized scFv16D3; scFvhp16D3mut) scFv: QVQLQQSGAELVKPGASVKISCKASGYTFTDYYINWVKLAPGQGLEWIGWIYPGSGNTKYNEKFKGKATLTIDTSSSTAYMQLSSLTSEDTAVYFCVRDSPFFDYWGQGTLLTVSSGGGGSGGGGSGGGGSDIVLTQSPDSLAVSLGERVTMNCKSSQSLLNSGMRKSFLAWYQQKPGQSPKLLIYWASTRESGVPDRFTGSGSGTDFTLTISSVQAEDVAVYYCKQSYHLFTFGSGTKLEIKGSYPYDVPDYAGSHHHHHH
		~0.1	scFv of murine antibody 16D3 (scFv, also called scFv16D3; scFv hp16D3) scFv: QIQLQQSGPELVKPGASVKISCKASGYTFTDYYINWVKLKPGQGLEWIGWIYPGSGNTKYNEKFKGKATLTIDTSSSTAYMQLSSLTSEDTAVYFCVRDSPFFDYWGQGTTLTVSSGGGGSGGGGSGGGGSDIVLSQSPSSLAVSAGEKVTMRCKSSQSLLNSGMRKSFLAWYQQKPGQSPKLLIYWASTRESGVPDRFTGSGSGTDFTLTISSVQAEDLAVYYCKQSYHLFTFGSGTKLEIKGSYPYDVPDYAGSHHHHHH
